{"source": "paper PMC3947560", "binders": {"B1": {"name": "ETS8/9 (PSA enhancer) (dsDNA)", "DNA 1": "CTTTACAAACATCCTTGAAACAACAATCCAGAA", "DNA 2": "TTCTGGATTGTTGTTTCAAGGATGTTTGTAA"}}, "target": "ETV1 (ER81) 249-477 (UniProt P50549 249-477)", "sequence (P50549 249-477)": "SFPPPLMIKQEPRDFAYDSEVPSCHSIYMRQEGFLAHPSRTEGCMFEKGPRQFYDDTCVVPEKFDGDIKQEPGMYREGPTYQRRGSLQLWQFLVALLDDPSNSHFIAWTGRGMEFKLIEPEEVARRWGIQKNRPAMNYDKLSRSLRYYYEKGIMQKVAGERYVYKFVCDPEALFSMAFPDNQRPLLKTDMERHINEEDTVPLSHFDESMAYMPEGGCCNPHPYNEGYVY", "assay": "EMSA"}
{"binder": "B1", "values": [{"measurement": "binding result", "result": "binds"}]}
